From paper PMC2115787
Read-outs that look alike come from different tables or passages of the source.

What was measured:
Test in all cases: light chain exchange into myosin
[1] = molecular target: myosin from adult White Rock chicken pectoralis muscle (chicken) (UniProt P02609)
[2] = molecular target: myosin from adult White Rock chicken pectoralis muscle (chicken) (UniProt P02609); remark: listed apart in the source
[3] = molecular target: myosin from adult White Rock chicken pectoralis muscle (chicken) (UniProt P02609); remark: listed apart in the source
[4] = molecular target: myosin from adult White Rock chicken pectoralis muscle (chicken) (UniProt P02609); remark: listed apart in the source

## regulatory light chain LC2 singly labeled with fluorescein at Cys 125 (from UniProt P02609 1-168) (natural protein)
[1]
  percent exchange: 26%
[2]
  percent exchange: 49%
[3]
  percent exchange: 7%
[4]
  percent exchange: 84%
